Results reported in PMC5508132.
Non-standard residues stand in square brackets, D forms with d. Groups on a side chain read outwards from the residue. No end group written: not given here. Phe(4-N3) = [N-]=[N+]=Nc1ccc(C[C@H](N)C(=O)O)cc1; ssDNA = not defined here

Molecular target: integrin (of mouse fibroblasts, members not named for this experiment)
Settings: scale: fold relative to the unmodified substrate

B1: RGDS P-DNA (F^azGGRGDS peptide conjugated to ssDNA) (peptide)
peptide: [Phe(4-N3)]([DIBAC-ssDNA])GGRGDS-NH2
modifications: reading uncertain; also: printed as F^az^GGRGDS
  area of fibroblasts on RGDS surfaces after 24 h, relative to the unmodified substrate: 6
